Assay results taken from patent US20240294670A1 (University of Texas, published 2024).

Columns and labels:
recombinant mouse CHI3L1 [1] = biological target: T1, recombinant mouse CHI3L1 (mouse, UniProt Q61362 30-389, limits assumed); test: ELISA: mouse CHI3L1 coated on the plate, B cell culture supernatant 100 ul/well, A450
T1 construct: His-tagged; also called mCHI3L1; mChi3l1
Method: (§1) FIG. 7. The ELISA binding of the supernatant antibody to the human CHI3L1. (hCHI3L1), and mouse CHI3L1 (mCHI3L1). The CHI3L1 protein was coated on maxi-sorp 96-well plates, cell culture supernatant (100 ul/well) was used for binding on the antigen coated plate. Binding signals (A450 nm) are shown in Y-axis and CHI3L1 mAbs are shown on X-axis.
(§2) Binding affinity of anti-CHI3L1 monoclonal antibodies to the CHI3L1 protein using ELISA method. Binding of CHI3L1 by monoclonal antibodies was first screened by ELISA using supernatants collected from the B cell cultures and cross reactivity to mouse CHI3L1 protein was determined (FIG. 7).

recombinant human CHI3L1 [2] = biological target: T2, recombinant human CHI3L1 (human, UniProt P36222 22-383); test: ELISA: human CHI3L1 coated on the plate, B cell culture supernatant 100 ul/well, A450
T2 construct: His-tagged recombinant protein (Sino Biological 11227-H08H, or in-house HEK293 protein with 6xHIS-tag and avi-tag); also called hCHI3L1; hChi3l1
Method: as §1, §2

recombinant human CHI3L1 [3] = biological target: T2, recombinant human CHI3L1; test: Octet BLI
recombinant mouse CHI3L1 [4] = biological target: T1, recombinant mouse CHI3L1; test: BLI (Octet), mAb on protein A sensor, CHI3L1 in solution, 1:1 fit
Method: (§3) FIG. 8. Kinetic binding sensorgrams collected on Octet instrument for determination of kon and koff rates for each CHI3L1 antibody.
(§4) Binding affinity of anti-CHI3L1 monoclonal antibodies determined using Bio-layer interferometry (BLI), a sensor-based Octet instrument. […] Following by kinetics buffer washing to baseline, the loaded biosensors were exposed to a series of recombinant CHI3L1 protein at 0.1-200 nM range and background subtraction was used to correct for any background from sensor drifting. All experiments were performed with shaking at 1,000 rpm. Background wavelength shifts were measured from reference biosensors that were loaded with antibody and followed with buffer without antigen. ForteBio's data analysis software was used to fit the data to a 1:1 binding model to extract an association rate and dissociation rate. The KD was calculated using the ratio of koff/kon and the estimated values of KD for CHI3L1 mAbs in Table C.

recombinant human CHI3L1 [5] = biological target: T2, recombinant human CHI3L1; test: as above
Method: as §3, §4

recombinant mouse CHI3L1 [6] = biological target: T1, recombinant mouse CHI3L1; test: Octet BLI

T2 sequence (P36222 22-383 limits assumed): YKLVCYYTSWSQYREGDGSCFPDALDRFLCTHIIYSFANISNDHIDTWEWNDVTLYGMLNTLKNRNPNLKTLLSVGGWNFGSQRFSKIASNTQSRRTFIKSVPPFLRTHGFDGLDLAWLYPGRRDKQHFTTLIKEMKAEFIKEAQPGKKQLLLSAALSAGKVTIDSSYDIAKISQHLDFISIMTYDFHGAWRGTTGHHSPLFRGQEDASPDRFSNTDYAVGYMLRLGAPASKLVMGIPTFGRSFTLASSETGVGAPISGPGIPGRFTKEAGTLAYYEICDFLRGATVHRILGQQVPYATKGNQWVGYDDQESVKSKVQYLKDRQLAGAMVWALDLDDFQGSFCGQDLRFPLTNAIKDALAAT
T1 sequence (Q61362 30-389 limits assumed): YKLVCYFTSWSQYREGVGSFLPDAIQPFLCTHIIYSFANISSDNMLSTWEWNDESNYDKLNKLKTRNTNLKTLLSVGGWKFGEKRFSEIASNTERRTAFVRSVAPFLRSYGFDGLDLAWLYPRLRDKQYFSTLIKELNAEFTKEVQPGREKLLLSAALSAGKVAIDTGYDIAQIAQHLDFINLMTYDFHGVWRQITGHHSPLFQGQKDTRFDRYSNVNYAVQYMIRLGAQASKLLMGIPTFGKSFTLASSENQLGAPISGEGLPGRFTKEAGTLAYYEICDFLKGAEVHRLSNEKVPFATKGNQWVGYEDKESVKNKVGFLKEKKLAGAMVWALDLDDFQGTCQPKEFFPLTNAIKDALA

Kd (recombinant mouse CHI3L1 [4]) [nM] | koff (recombinant mouse CHI3L1 [4]) [s⁻¹] | kon (recombinant mouse CHI3L1 [4]) [M⁻¹ s⁻¹] | Kd (recombinant human CHI3L1 [5]) [nM] | koff (recombinant human CHI3L1 [5]) [s⁻¹] | kon (recombinant human CHI3L1 [5]) [M⁻¹ s⁻¹] | Binder | also measured
 |  |  |  |  |  | anti-CHI3L1 monoclonal antibody C29 (antibody, V domains shown, Rabbit mAb) VH: QEQLVESGGDLVKPEGSLTLTCTASGFSFSDNYWMCWVRQAPGKGLEWIGCIYIGFSGTTYYASWAKGRFTISKASSTTVTLQMTSLTGADTATYFCARGVFYVGSGYWYYLNLWGPGTLVTISS VL: DVVMTQTPSSVSAAVGGTVTIKCQASQSIASYLAWYQQKPGQPPKLLIYRASTLASGVPSRFKGSGSGTEYTLTISDLECADAATYYCQTTYVGGSGNAFGGGTKVEIK | binding result (recombinant mouse CHI3L1 [1]): no binding; binding result (recombinant human CHI3L1 [2]): binds
 |  |  |  |  |  | humanized C7 antibody C7Hu (antibody, V domains shown, Humanized form of C7) VH: QVQLVESGGGVVQPGRSLRLSCAASGFTLTTYWVCWVRQAPGKGLEWVACIDAGSITYYTTWARGRFTISRDNSTNTLFLQMNSLRAEDTAVYYCARDAHYTYALVLWGRGTLVTVSS VL: DIQMTQSPSSVSASVGDRVTIKCQASEDIESYLAWYQQKPGKAPKLLIYDASDLASGVPSRFSGSGSGTDFTLTISSLQPEDAATYYCQGYSYGSSYVGFGGGTKVEIK | Kd (recombinant human CHI3L1 [3]): 0.88 nM; koff (recombinant human CHI3L1 [3]): 0.000492 s⁻¹; kon (recombinant human CHI3L1 [3]): 559000 M⁻¹ s⁻¹
7.92 | 0.000592 | 74800 | < 0.001 | < 1e-07 | 189000 | anti-CHI3L1 monoclonal antibody C56 (antibody, V domains shown, Rabbit mAb from single B cells, expressed as full length IgG in HEK293) VH: QEQLVESGGDLVKPGASLTLTCTASGFSFSSSYWICWVRQAPGKGLELIACIYPSSSGSTDYASWAKGRFTISKTSSTTVTLQMTSLTAADTATYFCARDIPYNIHGYTTGFNLWGPGTLVTVSS VL: ALVMTQTPASVEAAVGGTVTIKCQASQSIGSNLAWYQQKPGQPPKLLIYSASTLASGVSSRFKGSRSGTEFTLTISDLECADAATYYCQFTYYGSSDVDVFGGGTKVVVE | 
 |  |  |  |  |  | humanized C59 antibody C59Hu (antibody, V domains shown, Humanized form of C59) VH: EVQLVESGGGLVQPGGSLRLSCAASGFTISSDYYMCWVRQAPGKGLEWIGCIYIGSGTDTYYADSVKGRFTISKHNSKNTLYLQMTSLRAEDTAVYYCARDKGWSNAWGFYFQLWGQGTLVTVSS VL: DIQMTQSPSSLSASVGDRVTITCQASQSIGKYLNWYQQKPGKAPKLLIYSSSSLASGVPSRFSGSGFGTDFTLTISSLQPEDFATYYCQQGYSYVDLENGFGGGTKVEIK | Kd (recombinant mouse CHI3L1 [6]): 4.44 nM; koff (recombinant mouse CHI3L1 [6]): 0.00095 s⁻¹; kon (recombinant mouse CHI3L1 [6]): 214000 M⁻¹ s⁻¹; Kd (recombinant human CHI3L1 [3]): 4.5 nM; koff (recombinant human CHI3L1 [3]): 0.000635 s⁻¹; kon (recombinant human CHI3L1 [3]): 141000 M⁻¹ s⁻¹
3.43 | 0.000402 | 117000 | 1.42 | 0.000235 | 166000 | anti-CHI3L1 monoclonal antibody C59 (antibody, V domains shown, Rabbit mAb from single B cells, expressed as full length IgG in HEK293; also called clone 59; C59mAb) VH: QSVEESGGDLVKPGASLTLTCTASGFTISSDYYMCWVRQAPGKGLEWIGCIYIGSGTDTYYASWAKGRFTISKTSSTTVTLQMTSLTAADTATYFCARDKGWSNAWGFYFQLWGPGTLVTVSS VL: DPVLTQTPASVEVPVGGTVTINCQASQSIGKYLNWYQQKPGQPPKLLIYSSSSLASGVSSRFKGSGFGTQFTLTISGVQCADAATYYCQQGYSYVDLENGFGGGTELEIL | 
 |  |  |  |  |  | anti-CHI3L1 monoclonal antibody C28 (antibody, V domains shown, Rabbit mAb) VH: QQLKESGGDLVKPGASLTLTCTASGFSFSSGYYMCWVRQAPGKGLEWIACIGASSGLTNYASWAKGRFTISKTSSTTVTLRMTSLTAADTATYFCARVYLGGADYEQFNLWGPGTLVTVSS VL: AQVLTQTPSSASEPVGGTVTIKCQAGESVSSRVAWYQQKPGQPPKLLIFDASALASGVSSRFTGSGSGTQFTLTISDLECADAATYYCQNYYGISGVAFGGGTEVVVK | binding result (recombinant mouse CHI3L1 [1]): no binding; binding result (recombinant human CHI3L1 [2]): binds
3.54 | 0.000273 | 77300 | < 0.001 | < 1e-07 | 137000 | anti-CHI3L1 monoclonal antibody C53 (antibody, V domains shown, Rabbit mAb from single B cells, expressed as full length IgG in HEK293) VH: QEQLVESGGDLVKPGASLTLTCTASGFSFSSSHYMCWVRQAPGKGLEWIACIYLGDDSTYYASWVNGRFSISKTSSTTVTLQMTSLTAADTATYFCARHGYNLAIHNYIIWGPGTLVTVSS VL: DVVMTQTPSSVEAGVGGTVTIKCQASESSSRHLSWYQQKPGQRPKLLIYWASTLASGVPSRFQGSGSGTEFTLTISDLECADAATYYCQSYYGLSNNGWRYAFGGGTEVVVK | 
